Experimental data from patent publication EP2468863A1.

Biological target: CEACAM1 expressed on transfected cells (CHO-CEACAM1, HeLa CC1, HeLa-CC1H) (human) (UniProt P13688)
Assay: cell-based or functional assay

Sequence of UniProt P13688 (P13688 35-526): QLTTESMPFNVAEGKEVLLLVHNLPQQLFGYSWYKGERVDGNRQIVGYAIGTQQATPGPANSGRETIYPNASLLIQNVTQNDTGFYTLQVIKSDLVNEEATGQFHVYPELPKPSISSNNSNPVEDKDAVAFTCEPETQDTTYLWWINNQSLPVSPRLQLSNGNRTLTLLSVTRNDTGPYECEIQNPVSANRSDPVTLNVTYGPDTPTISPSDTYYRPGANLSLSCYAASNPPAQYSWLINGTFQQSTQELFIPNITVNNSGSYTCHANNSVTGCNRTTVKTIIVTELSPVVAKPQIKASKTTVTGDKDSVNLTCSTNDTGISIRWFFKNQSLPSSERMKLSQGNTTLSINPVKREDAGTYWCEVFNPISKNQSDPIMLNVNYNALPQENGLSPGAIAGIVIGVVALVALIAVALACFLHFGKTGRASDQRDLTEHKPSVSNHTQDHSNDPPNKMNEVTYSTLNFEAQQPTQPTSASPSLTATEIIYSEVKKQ

Question: Which inhibition of binding of H. influenzae to CHO-CEACAM1 transfectants does the source give for “recombinant UspA1 fragment 4-7 (peptide)” here?
Answer: The inhibition of binding of H. influenzae to CHO-CEACAM1 transfectants was 10 µg per ml.

Question: What about the inhibition of binding of M. catarrhalis strain MX1 to CHO-CEACAM1 transfectants of the same substance?
Answer: The inhibition of binding of M. catarrhalis strain MX1 to CHO-CEACAM1 transfectants was 1 µg/mL.
